In one assay the test system is retinal whole mounts. Kind of assay: Oxygen Glucose Deprivation (OGD) in retinal whole mounts, PI staining. The assay is classed as cell-based. Particulars: added to the medium, OGD 1 hour, 24 hours. On the procedure:
Specifically, retinal whole mounts were subjected to OGD for 1 hour. After ischemia, whole mounts were incubated for 24 hours and dead cells were identified using propidium iodide (PI) staining.
To determine whether Neogenin required lipid raft association to induce cell death, OGD was performed on retinal whole mounts in the presence of 4Ig, which as described above, prevented Neogenin localization into lipid rafts.

The subject of the next assay is retinal cells. Put plainly: Ocular ischemia by ligation of the main optic artery, cell survival. The assay is classed as in vivo, rat. Particulars: injection into the eye after ligation. How it is done: (A,B,C) Schematic representation of the experiments performed on the eye. A) the main artery was ligated to stop blood flow for 15 min. B) RGMa was injected into the eye vitreous just after ligation. C) 2 weeks after ligation, retrograde labeling was performed to assess cell survival. D) Representation of the retinal areas used for quantification. E) Quantification of cell survival performed on 8 rats for each condition.
To extend this study, whether RGMa injection into the eye affected cell survival after ligation of the main optic artery to induce ocular ischemia was tested.

Here are results for 1 molecule from patent US11497796B2, “Agents directed against a cis RGMa/neogenin interaction or lipid rafts and use of the same in methods of treatment” (UNIVERSITY HEALTH NETWORK, priority 2013, dated 2022).

B1: RGMa: Repulsive Guidance Molecule A added to the medium or injected into the eye (protein)
chain: PHLRTFTDTFQTCKVQGAWPLIDNNYLNVQVTNTPVLPGSSATATSKLTIIFKSFQECVEQKVYQAEMDELPAAFADGSKNGGDKHGANSLKITEKVSGQHIEIQAKYIGTTIVVRQVGRYLTFAVRMPEEVVNAVEDRDSQGLYLCLRGCPLNQQIDFQTFRLAQAAEGRARRKGPSLPAPPEAFTYESATAKCREKLPVEDLYFQSCVFDLLTTGDVNFMLAAYYAFEDVKMLHSNKDKLHLYERTRALAPGN
As to B1, the “cell survival after OGD” value with retinal whole mounts is “promoted cell survival”. Also, the “enhancement of survival compared to controls” value in the assay with retinal cells is “up to 2 times”.
